Reference: patent US20160060340A1 (Kyowa Kirin, published 2016)
One block for each binder: values may come before it.

Legend:
[1] = target: T1, cynomolgus monkey FOLR1 (on JTC-12 cells) (cynomolgus monkey, UniProt P15328 25-234 (human entry)); experiment: flow cytometry on cynomolgus monkey kidney-derived cell line JTC-12
T1 construct: Endogenous FOLR1 of the cynomolgus monkey kidney-derived cell line JTC-12; also called CyFOLR1
Protocol: Subsequently, the cells were seeded in a 96-well plate at a density of 2×10⁵ cells/well, followed by centrifugation at 1500 rpm for 1 minute. After the supernatant was discarded, 50 μL of RA15-7 culture supernatant was added to each well, and allowed to react at 4° C. for 30 minutes.
Cells were washed, and then Alexa488-labeled anti-rat IgG(H+L) polyclonal antibody (Invitrogen) diluted in 1% BSA/PBS was added thereto, and they were allowed to react at 4° C. for 30 minutes. The cells were washed again, and then suspended in 1% BSA/PBS, and fluorescent intensity was analyzed by flow cytometry.
In the same manner, the reactivity of the RA15-7 culture supernatant to cynomolgus monkey kidney-derived cell line JTC-12 (RCB1485, RIKEN CELL BANK) was also analyzed by flow cytometry.

FOLR1-mycHis [2] = target: T2, FOLR1-mycHis (human, UniProt P15328 25-233); experiment: SPR (Biacore T100), antibody of the supernatant captured on CM5 chip, FOLR1-mycHis as analyte, single-cycle kinetics, 1:1 binding model
T2 construct: Secreted from CHO/DG44 cells, purified on Ni-NTA; Residues 1-233 include the native signal peptide; also called non-reducing FOLR1-mycHis; recombinant protein having myc and His tag at the C-terminus of FOLR1 (1-233 amino acids); not shown: myc and His tag at the C-terminus
T2 sequence (P15328 25-233): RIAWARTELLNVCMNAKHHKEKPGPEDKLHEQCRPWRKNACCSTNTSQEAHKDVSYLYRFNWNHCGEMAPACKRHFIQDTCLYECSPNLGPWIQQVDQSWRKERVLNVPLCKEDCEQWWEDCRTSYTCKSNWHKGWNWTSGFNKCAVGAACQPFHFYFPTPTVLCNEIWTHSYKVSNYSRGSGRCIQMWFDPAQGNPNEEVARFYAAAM
Text: After cloning, the hybridoma culture supernatant was used to measure its affinity for FOLR1 by a surface plasmon resonance method. As instruments for measurement, Biacore T100 (GE Healthcare), and CM5 chip (GE Healthcare) were used. First, Mouse Antibody Capture Kit (GE Healthcare) was immobilized onto the CM5 chip by amine coupling.
Subsequently, the hybridoma culture supernatant was applied using HBS-EP+buffer (GE Healthcare), and the antibodies contained in the supernatant were captured on the CM5 chip. Subsequently, FOLR1-mycHis prepared by five-step dilution (188, 375, 750, 1500, 3000 ng/mL) was applied as an analyte.
(§1) The affinity was analyzed from association constant (Ka) and dissociation constant (Kd) by Single-cycle kinetics. Kinetic constants (ka, kd, KD) were calculated by 1:1 binding model using a Biacore T-100 Evaluation software (GE Healthcare).

[3] = target: T3, cynomolgus monkey FOLR1-Fc (cynomolgus monkey; human); experiment: ELISA: antibody captured by anti-rat IgG, Fc fusion added, anti-human IgG-POD
T3 construct: Expressed in CHO/Ms704 cells; also called CyFOLR1-Fc; not shown: Human IgG1 Fc (Hinge region and CH2-CH3 region) from pKANTEX93, added to the C-terminus
T3 sequence (chain, as listed by the source): as the sequence (P15328 25-233) above, with I2T, W4R, R37K, A146P, H171Y counted along it
Protocol: Each well was washed with PBS, and then 100 μL/well of 1% BSA/PBS was added at room temperature for 1 hour for blocking. Each well was washed with PBS again, and 50 μL/well of the RA15-7 culture supernatant was added, and allowed to react at room temperature for 1 hour. Each well was washed with 0.05% tween20/PBS, and 50 μL/well of FOLR1-Fc, FOLR2-Fc, FOLR3-Fc, and cynomolgus monkey FOLR1-Fc which were diluted in 1% BSA/PBS were added, and allowed to react at room temperature for 1 hour.
Each well was washed with 0.05% tween20/PBS, and then 50 μL/well of Goat anti-human IgG(H+L)-POD (American Qualex) which was diluted 2000-fold in 1% BSA/PBS was added and allowed to react at room temperature for 1 hour. Each well was washed with PBS, and then 50 μL/well of ABTS substrate solution was added, and allowed to react at room temperature. After sufficient color development was confirmed, 50 μL/well of 5% SDS solution was added to terminate the reaction, and absorbance at 415 nm was measured.

Rat4-FOLR1-mycHis [4] = target: T4, Rat4-FOLR1-mycHis (human with a rat segment); experiment: ELISA, antigen coated at 10 µg/mL, antibody 14-10000 ng/mL; white circle indicates that reaction occurred
T4 construct: also called rat/human chimeric FOLR1-mycHis (human 91-95 replaced by rat 89-93)
T4 sequence (chain, as listed by the source limits assumed): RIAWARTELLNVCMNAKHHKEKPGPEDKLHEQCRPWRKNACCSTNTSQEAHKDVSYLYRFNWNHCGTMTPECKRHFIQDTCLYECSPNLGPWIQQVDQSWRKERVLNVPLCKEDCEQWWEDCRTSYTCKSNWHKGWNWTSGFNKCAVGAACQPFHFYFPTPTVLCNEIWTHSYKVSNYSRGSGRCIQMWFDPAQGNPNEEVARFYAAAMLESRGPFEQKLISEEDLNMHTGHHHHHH
Protocol: (§2) First, each 50 μL/well of FOLR1-mycHis, Rat1-FOLR1-mycHis, Rat2-FOLR1-mycHis, and Rat4-FOLR1-mycHis which were prepared at a concentration of 10 μg/mL using PBS was […] in a 96-well plate for ELISA, and then incubated at 4° C. overnight. Each well was washed with PBS, and then 200 μL/well of 1% BSA/PBS was added at room temperature for 1 hour for blocking.

FOLR1-mycHis [5] = target: T2, FOLR1-mycHis; experiment: SPR (Biacore T100), antibody captured with Human Antibody Capture Kit, FOLR1-mycHis as analyte, 1:1 binding model
Protocol: as §1
(§3) The affinities of ChRA15-7Acc antibody and MORAb-003 antibody for FOLR1 were measured by a surface plasmon resonance method. The measurement was carried out in the same manner as in Example 16, except that a Human Antibody Capture Kit (GE Healthcare) was immobilized onto the CM5 chip by amine coupling and FOLR1-mycHis prepared by five-step dilution (12.3, 37, 111, 333, 1000 ng/mL) was applied as an analyte.

Rat2-FOLR1-mycHis [6] = target: T5, Rat2-FOLR1-mycHis (human with a rat segment); experiment: ELISA, antigen coated at 10 µg/mL; x indicates that no reaction occurred
T5 construct: also called rat/human chimeric FOLR1-mycHis (human 55-62 replaced by rat 53-60)
T5 sequence (chain, as listed by the source limits assumed): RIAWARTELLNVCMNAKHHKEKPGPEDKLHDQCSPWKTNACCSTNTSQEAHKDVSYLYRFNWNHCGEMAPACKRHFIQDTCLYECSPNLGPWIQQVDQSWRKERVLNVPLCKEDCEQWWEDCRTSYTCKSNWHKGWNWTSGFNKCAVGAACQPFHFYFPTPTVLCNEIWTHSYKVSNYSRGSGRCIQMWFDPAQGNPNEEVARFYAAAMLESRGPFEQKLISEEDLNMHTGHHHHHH

Rat2-FOLR1-mycHis [7] = target: T5, Rat2-FOLR1-mycHis; experiment: ELISA as in Example 35, antigen coated; x indicates that no reaction occurred
Protocol: as §2
(§4) In the same manner as in Example 35, reactivities of ChRA15-7Acc antibody, MORAb-003 antibody, MOv18 antibody, and HuRA15-7CTAcc antibody were evaluated using FOLR1-mycHis prepared in Example 11 and Rat1-FOLR1-mycHis, Rat2-FOLR1-mycHis, Rat4-FOLR1-mycHis prepared in Example 34.

FOLR1-mycHis [8] = target: T2, FOLR1-mycHis; experiment: SPR as in Example 29, antibody captured, FOLR1-mycHis as analyte, 1:1 binding model
Protocol: as §3
In the same manner as in Example 29, affinity of HuRA15-7CTAcc antibody for FOLR1 was measured by the surface plasmon resonance method.

Rat4-FOLR1-mycHis [9] = target: T4, Rat4-FOLR1-mycHis; experiment: ELISA as in Example 35, antigen coated; white circle indicates that reaction occurred
Protocol: as §2, §4

T1 sequence (P15328 other isoform, or with tags, fused parts or gaps limits assumed): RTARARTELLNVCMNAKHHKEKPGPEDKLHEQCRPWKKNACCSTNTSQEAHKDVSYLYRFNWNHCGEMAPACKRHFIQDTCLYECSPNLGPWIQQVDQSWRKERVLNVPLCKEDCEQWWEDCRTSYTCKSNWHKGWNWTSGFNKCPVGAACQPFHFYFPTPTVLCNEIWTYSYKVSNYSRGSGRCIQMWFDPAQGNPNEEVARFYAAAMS

binding result [1]: binds | Kd (FOLR1-mycHis [2]): 1.9 nM | binding result [3]: binds
B1: RA15-7 antibody (antibody, V domains shown)
VH: EVKLLESGGGLVQPGGSMRLSCAASGFTFTDFYMNWIRQPAGKAPEWLGFIRNKANGYTTEFNPSVKGRFAISRDNTQNMLYLQMNTLRAEDTATYYCARCLYGYAYYYVMDAWGQGTSVTVSS
VL: DIQMTQSPASLSASLGETVTIECRTSEDIFRNLAWYQQRPGNSPQLLIYDTNRLADGVPSRFSGSGSGTQYSLKINSLQSEDVAGYFCQQYDNYPLTFGSGTKLEIK
notes: also called antibody contained in the RA15-7 culture supernatant; culture supernatant of hybridoma RA15-7 clone

binding result (Rat4-FOLR1-mycHis [4]): binds | Kd (FOLR1-mycHis [5]): 0.57 nM | koff (FOLR1-mycHis [5]): 0.001 s⁻¹ | binding result (Rat2-FOLR1-mycHis [6]): no binding (tested: up to 10000 ng/mL)
B2: ChRA15-7Acc antibody (antibody, human IgG1, V domains shown)
VH: EVKLLESGGGLVQPGGSMRLSCAASGFTFTDFYMNWIRQPAGKAPEWLGFIRNKANGYTTEFNPSVKGRFAISRDNTQNMLYLQMNTLRAEDTATYYCARCLYGYAYYYVMDAWGQGTSVTVSS
VL: DIQMTQSPASLSASLGETVTIECRTSEDIFRNLAWYQQRPGNSPQLLIYDTNRLADGVPSRFSGSGSGTQYSLKINSLQSEDVAGYFCQQYDNYPLTFGSGTKLEIK
notes: Defucosylated, made in CHO/Ms704 cells; also called CDC enhancement technology-applied defucosylated ChRA15-7; rat/human chimeric RA15-7

binding result (Rat2-FOLR1-mycHis [7]): no binding (tested: up to 10000 ng/mL) | Kd (FOLR1-mycHis [8]): 0.65 nM | koff (FOLR1-mycHis [8]): 0.00108 s⁻¹ | binding result (Rat4-FOLR1-mycHis [9]): binds
B3: HuRA15-7CTAcc antibody (antibody, human IgG1, V domains shown)
VH: EVQLVESGGGLVQPGGSLRLSCAASGFTFTDFYMNWVRQPPGKAPEWLGFIRNKANGYTTEFNPSVKGRFTISRDNSKNSLYLQMNSLKTEDTATYYCARTLYGYAYYYVMDAWGQGTLVTVSS
VL: DIQMTQSPSSLSASLGDRVTITCRTSEDIFRNLAWYQQKPGKAPKLLIYDTNRLADGVPSRFSGSGSGTDYTLTISSLQPEDFATYFCQQYDNYPLTFGQGTKLEIK
notes: Defucosylated, made in CHO/Ms704 cells; also called CDC enhancement technology-applied defucosylated HuRA15-7CT
